T1: T. maritima HK853 (T. maritima, UniProt Q9WZV7 232-489)
T1 sequence (looked up): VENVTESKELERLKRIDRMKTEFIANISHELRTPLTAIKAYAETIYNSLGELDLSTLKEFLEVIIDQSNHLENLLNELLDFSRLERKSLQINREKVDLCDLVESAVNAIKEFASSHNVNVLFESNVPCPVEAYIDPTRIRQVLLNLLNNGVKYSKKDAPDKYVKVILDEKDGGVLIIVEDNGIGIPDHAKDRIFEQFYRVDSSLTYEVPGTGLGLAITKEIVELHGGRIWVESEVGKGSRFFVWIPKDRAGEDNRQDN

T2: HK1190 (Myxococcus xanthus (strain DZ2 genomic …, UniProt Q1DD24 1-424))
T2 sequence (looked up): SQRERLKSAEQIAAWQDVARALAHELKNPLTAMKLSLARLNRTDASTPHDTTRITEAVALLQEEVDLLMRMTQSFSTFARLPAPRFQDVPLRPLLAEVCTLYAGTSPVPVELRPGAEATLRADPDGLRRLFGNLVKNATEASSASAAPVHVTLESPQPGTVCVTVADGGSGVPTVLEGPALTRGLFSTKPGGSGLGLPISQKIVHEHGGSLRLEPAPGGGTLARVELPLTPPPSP

T3: FrgB (Myxococcus xanthus (strain DZ2 genomic …, UniProt Q9RF10 1-510))
T3 sequence (looked up): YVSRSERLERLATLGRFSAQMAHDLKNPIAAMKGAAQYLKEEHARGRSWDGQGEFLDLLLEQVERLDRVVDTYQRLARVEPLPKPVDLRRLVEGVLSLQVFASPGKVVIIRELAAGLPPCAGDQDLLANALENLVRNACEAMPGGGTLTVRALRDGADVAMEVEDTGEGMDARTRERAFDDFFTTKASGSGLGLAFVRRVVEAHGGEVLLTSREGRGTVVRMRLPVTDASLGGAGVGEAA

T4: CrdA (Myxococcus xanthus (strain DZ2 genomic …, UniProt Q84I63 1-498))
T4 sequence (looked up): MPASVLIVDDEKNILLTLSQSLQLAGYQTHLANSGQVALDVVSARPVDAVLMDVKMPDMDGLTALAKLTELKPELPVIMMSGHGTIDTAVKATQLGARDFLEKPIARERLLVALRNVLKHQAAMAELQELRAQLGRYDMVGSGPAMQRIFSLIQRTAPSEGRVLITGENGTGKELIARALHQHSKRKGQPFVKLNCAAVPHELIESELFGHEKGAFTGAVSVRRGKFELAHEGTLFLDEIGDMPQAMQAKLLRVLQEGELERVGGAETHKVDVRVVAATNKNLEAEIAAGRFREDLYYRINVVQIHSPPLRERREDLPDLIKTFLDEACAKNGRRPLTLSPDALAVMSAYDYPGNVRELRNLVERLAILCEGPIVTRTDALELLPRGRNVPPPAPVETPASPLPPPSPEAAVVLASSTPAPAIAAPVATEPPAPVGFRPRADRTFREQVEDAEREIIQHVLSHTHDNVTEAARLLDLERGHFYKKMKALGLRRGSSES

B1: T. maritima RR468 (natural protein, UniProt Q9WYT9 1-122, looked up)
chain: MSKKVLLVDDSAVLRKIVSFNLKKEGYEVIEAENGQIALEKLSEFTPDLIVLDIMMPVMDGFTVLKKLQEKEEWKRIPVIVLTAKGGEEDESLALSLGARKVMRKPFSPSQFIEEVKHLLNE
B2: NtrC1189 (domain or fragment, UniProt Q1DD25 1-450, looked up)
chain: MKPGPRILIVDDDSGVLRALRGLLSDEGFTPVEARSAAEASQLLDAPEGPPAMMLLDLRMPGETGLELLARLPRPFPAPVVVLSGEASPAEAVQALRLGATDFVEKPPSPERLLTAVRNALALGS
B3: FrgC (domain or fragment, UniProt Q9RF09 1-466, looked up)
chain: MNESLRGTVLLVDDDPAVAKVLGALLTQAGLTTHAARDGQEALALLASKPVDVVVSDVRMPGMDGLQVLAEVARGWPDVPVILLTAHGTVPLAVEAMKAGAADFVLKPFDREEILFTVRKALLRAQG

How the values were obtained:
[1] = target: CrdS6 (Myxococcus xanthus (strain DZ2 genomic DNA)); assay: other fluorescence titration
[2] = target: T. maritima HK853 (T. maritima) (UniProt Q9WZV7); assay: ITC
[3] = target: FrgB (Myxococcus xanthus (strain DZ2 genomic DNA)) (UniProt Q9RF10); assay: ITC
[4] = target: CrdS6 (Myxococcus xanthus (strain DZ2 genomic DNA)); assay: ITC
T. maritima HK853 = target: T1, T. maritima HK853; assay: ITC
HK1190 = target: T2, HK1190; assay: ITC
FrgB = target: T3, FrgB; assay: ITC
NtrC1189 = target: B2; assay: ITC
FrgC = target: B3; assay: ITC
CrdA [5] = target: T4, CrdA; assay: ITC
T. maritima RR468 = target: B1; assay: ITC
CrdA [6] = target: T4, CrdA; assay: other fluorescence titration

Kd (T. maritima HK853) | Kd (HK1190) | Kd (FrgB) | Kd (NtrC1189) | Molecule | other results
– | – | – | – | CrdA (from UniProt Q84I63 1-498) (domain or fragment) | Kd [1]: > 200 µM; Kd [2]: > 75 µM; Kd [3]: > 75 µM; Kd [4]: > 75 µM
1.16 µM | > 55 µM | > 75 µM | – | B1 | –
> 55 µM | 1.23 µM | > 75 µM | – | B2 | –
– | – | – | > 75 µM | CrdS (domain or fragment) RLMASERIAAWQEVARRLAHEIKNPLTPIRMSLETLQAAQEAKHPRFQDMFKESAGVVLEEVDRLRRIVDEFSHFARMPKPQLAPVDLGELAQSVLALYATPPTGIQILPTLQTGVVARVDRDQLTQVLVNLVKNAEEAMASTGGTLRVRVRSTEADAIVEVEDSGPGIPLEHRARIFEPYFTTKDGGTGLGLAIASRILQEHGGKLEVGGEPGHGARFSLVLPRAA | Kd (FrgC): > 75 µM; Kd (CrdA [5]): 1.41 µM; Kd (T. maritima RR468): > 75 µM; Kd (CrdA [6]): 2.28 ± 0.66 µM
– | – | – | 2.09 µM | CrdS6 (domain or fragment) RLMASERIAAWQEVARRLAHEIKNPLTAIRLSLARLQAAQEAKHPRFQDMFKESAGVVLEEVDRLRRIVDEFSHFARMPKPQLAPVDLGELAQSVLALYATPPTGIQILPTLQTGVVARVDRDQLTQVLVNLVKNAEEAMASTGGTLRVRVRSTEADAIVEVEDSGPGIPLEHRARIFEPYFTTKDGGTGLGLAIASRILQEHGGKLEVGGEPGHGARFSLVLPRAA | –
> 55 µM | > 35 µM | 1.23 µM | – | B3 | –

From PMC3892784 (mBio, 2013)
